In US20250250357A1:
Blank lines part the entries; values can stand above or below the substance they belong to.

Legend:
[1] = molecular target: human MSLN-R3-3 polypeptide (human); assay: ELISA, coated antigen, antibody 0.1 nM
[2] = molecular target: human MSLN-R3-3 polypeptide (human); assay: ELISA, coated antigen, no antibody (blank)
[3] = molecular target: human MSLN-R3-3 polypeptide (human); assay: ELISA, coated antigen, antibody 1 nM
[4] = molecular target: human MSLN-R3-3 polypeptide (human); assay: ELISA, coated antigen, antibody 0.0001 nM
[5] = molecular target: human MSLN-R3-3 polypeptide (human); assay: ELISA, coated antigen, antibody 0.01 nM
[6] = molecular target: human MSLN-R3-3 polypeptide (human); assay: ELISA, coated antigen, antibody 0.001 nM
[7] = molecular target: human MSLN-R3-rFc protein (human) (UniProt Q13421); assay: ELISA, antibody 100 nM
[8] = molecular target: human MSLN-R3-rFc protein (human) (UniProt Q13421); assay: ELISA, antibody 1 nM
[9] = molecular target: human MSLN-R3-rFc protein (human) (UniProt Q13421); assay: ELISA, antibody 0.0064 nM
[10] = molecular target: human MSLN-R3-rFc protein (human) (UniProt Q13421); assay: ELISA, antibody 4 nM
[11] = molecular target: human MSLN-R3-rFc protein (human) (UniProt Q13421); assay: ELISA, antibody 20 nM
[12] = molecular target: human MSLN-FL-his protein (human) (UniProt Q13421); assay: ELISA, antibody 0.0001 nM
[13] = molecular target: human MSLN-R3-rFc protein (human) (UniProt Q13421); assay: ELISA, antibody 0.032 nM
[14] = molecular target: monkey MSLN full-length protein (NCBI: XP_028696439.1) expressed on HEK293T-monkey MSLN cells (monkey); assay: FACS on HEK293T-monkey MSLN cells
[15] = molecular target: human MSLN protein endogenously expressed on OVCAR3 tumor cells (human) (UniProt Q13421); assay: FACS on OVCAR3 cells
[16] = molecular target: human MSLN-R3 protein (Met487-Ser606 of NCBI AAH09272.1) expressed on HEK293T-hMSLN-R3 cells (human) (UniProt Q13421); assay: FACS on HEK293T-hMSLN-R3 cells
[17] = molecular target: human MSLN full-length protein (NCBI: AAH09272.1) expressed on HEK293T-hMSLN-B8 cells (human) (UniProt Q13421); assay: FACS on HEK293T-hMSLN-B8 cells
human MSLN full-length protein (NCBI: AAH09272.1) expressed on HEK293T-hMSLN-B8 cells (human), sequence (Q13421 other isoform, or with tags, fused parts or gaps limits assumed): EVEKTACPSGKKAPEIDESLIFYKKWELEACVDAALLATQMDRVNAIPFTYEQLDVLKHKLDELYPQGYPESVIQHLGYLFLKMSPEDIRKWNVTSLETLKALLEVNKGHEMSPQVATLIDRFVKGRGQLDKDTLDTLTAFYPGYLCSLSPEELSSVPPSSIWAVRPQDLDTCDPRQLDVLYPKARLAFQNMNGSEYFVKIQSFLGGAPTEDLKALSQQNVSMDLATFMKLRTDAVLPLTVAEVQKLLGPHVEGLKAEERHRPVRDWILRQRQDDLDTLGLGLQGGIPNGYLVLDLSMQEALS

human MSLN-R3-rFc protein (human), sequence (Q13421 495-606): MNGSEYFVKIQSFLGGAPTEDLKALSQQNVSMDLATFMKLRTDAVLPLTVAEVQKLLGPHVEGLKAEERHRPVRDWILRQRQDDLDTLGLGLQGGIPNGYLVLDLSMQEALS
human MSLN protein endogenously expressed on OVCAR3 tumor cells (human), sequence (Q13421 other isoform, or with tags, fused parts or gaps): as the sequence (Q13421 other isoform, or with tags, fused parts or gaps limits assumed) above, with P14R counted along it
human MSLN-FL-his protein (human), sequence (Q13421 other isoform, or with tags, fused parts or gaps): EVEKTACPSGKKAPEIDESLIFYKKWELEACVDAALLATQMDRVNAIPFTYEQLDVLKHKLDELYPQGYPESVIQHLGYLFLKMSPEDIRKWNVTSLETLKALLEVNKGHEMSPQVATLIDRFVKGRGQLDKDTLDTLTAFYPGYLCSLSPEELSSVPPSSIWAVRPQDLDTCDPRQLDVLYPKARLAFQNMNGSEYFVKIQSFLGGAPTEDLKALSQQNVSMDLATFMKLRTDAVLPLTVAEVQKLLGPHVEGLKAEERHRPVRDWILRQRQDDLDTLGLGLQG
human MSLN-R3 protein (Met487-Ser606 of NCBI AAH09272.1) expressed on HEK293T-hMSLN-R3 cells (human), sequence (Q13421 495-614): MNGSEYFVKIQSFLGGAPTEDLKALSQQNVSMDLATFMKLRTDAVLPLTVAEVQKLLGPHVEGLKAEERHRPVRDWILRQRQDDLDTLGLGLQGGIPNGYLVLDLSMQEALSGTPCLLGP

OD450 [1]: 0.06
OD450 [2]: 0.07
OD450 [3]: 0.06
OD450 [4]: 0.07
OD450 [5]: 0.06
OD450 [6]: 0.06
Substance: anti-hel-hIgG1 (negative control antibody against hen egg lysozyme)

OD450 nm [7]: 1.11
OD450 nm [8]: 0.11
OD450 nm [9]: 0.16
OD450 nm [10]: 0.23
OD450 nm [11]: 0.86
Substance: anti-human MSLN antibody (purchased from Acro, Cat. No. MSN-M30)

OD450 nm [12]: 0.04
OD450 nm [13]: 0.11
OD450 nm [7]: 0.21
OD450 nm [8]: 0.09
OD450 nm [10]: 0.15
Substance: hIgG1 (human IgG1 control antibody)

Maximum mean fluorescence intensity [14]: 102
Maximum mean fluorescence intensity [15]: 122
Maximum mean fluorescence intensity [16]: 102
Maximum mean fluorescence intensity [17]: 267
Substance: hIgG1 negative control antibody (anti-hel-hIgG1, against hen egg lysozyme)
